Measurements from patent US20090318350A1, “PAN-HER ANTAGONISTS AND METHODS OF USE” (published 2009).

Tests used:
[1] = biological target: HER3 receptor (human, UniProt P21860); test: cell-based or functional assay
[2] = biological target: human epidermal growth factor receptor (EGFR) (human, UniProt P00533); test: cell-based or functional assay

B1: Heregulin (purified protein) (ligand)
chain: SHLVKCAEKEKTFCVNGGECFMVKDLSNPSRYLCKCPNEFTGDRCQNYVMASFYKHLGIEFMEAEELY
- Calculated cell proliferation (EC50; picomolar) [1]: 6150 picomolar

B2: EGF (purified protein) (ligand)
chain: HHHHHHIEGRNSDSECPLSHDGYCLHDGVCMYIEALDKYACNCWGYIGERCQYRDLKWWELR
- Calculated cell proliferation (EC50; picomolar) [2]: 1150 picomolar
